Values quoted from earlier work as cited in publication PMC7855784.

Target: HER2 ECD (Homo sapiens) (UniProt P04626)

Kd: 7.3 nM
Substance: PEPD (from UniProt P12955)
